Here are results for two molecules from patent US20150093336A1 (VIB VZW, published 2015).

The target in test [1] is T1, Recombinant human MMR (R&D systems) (human, UniProt P22897 19-1383).
T1 construct: Antigen of the PE-ELISA and the SPR; also called hMMR; recombinant hMMR
T1 sequence: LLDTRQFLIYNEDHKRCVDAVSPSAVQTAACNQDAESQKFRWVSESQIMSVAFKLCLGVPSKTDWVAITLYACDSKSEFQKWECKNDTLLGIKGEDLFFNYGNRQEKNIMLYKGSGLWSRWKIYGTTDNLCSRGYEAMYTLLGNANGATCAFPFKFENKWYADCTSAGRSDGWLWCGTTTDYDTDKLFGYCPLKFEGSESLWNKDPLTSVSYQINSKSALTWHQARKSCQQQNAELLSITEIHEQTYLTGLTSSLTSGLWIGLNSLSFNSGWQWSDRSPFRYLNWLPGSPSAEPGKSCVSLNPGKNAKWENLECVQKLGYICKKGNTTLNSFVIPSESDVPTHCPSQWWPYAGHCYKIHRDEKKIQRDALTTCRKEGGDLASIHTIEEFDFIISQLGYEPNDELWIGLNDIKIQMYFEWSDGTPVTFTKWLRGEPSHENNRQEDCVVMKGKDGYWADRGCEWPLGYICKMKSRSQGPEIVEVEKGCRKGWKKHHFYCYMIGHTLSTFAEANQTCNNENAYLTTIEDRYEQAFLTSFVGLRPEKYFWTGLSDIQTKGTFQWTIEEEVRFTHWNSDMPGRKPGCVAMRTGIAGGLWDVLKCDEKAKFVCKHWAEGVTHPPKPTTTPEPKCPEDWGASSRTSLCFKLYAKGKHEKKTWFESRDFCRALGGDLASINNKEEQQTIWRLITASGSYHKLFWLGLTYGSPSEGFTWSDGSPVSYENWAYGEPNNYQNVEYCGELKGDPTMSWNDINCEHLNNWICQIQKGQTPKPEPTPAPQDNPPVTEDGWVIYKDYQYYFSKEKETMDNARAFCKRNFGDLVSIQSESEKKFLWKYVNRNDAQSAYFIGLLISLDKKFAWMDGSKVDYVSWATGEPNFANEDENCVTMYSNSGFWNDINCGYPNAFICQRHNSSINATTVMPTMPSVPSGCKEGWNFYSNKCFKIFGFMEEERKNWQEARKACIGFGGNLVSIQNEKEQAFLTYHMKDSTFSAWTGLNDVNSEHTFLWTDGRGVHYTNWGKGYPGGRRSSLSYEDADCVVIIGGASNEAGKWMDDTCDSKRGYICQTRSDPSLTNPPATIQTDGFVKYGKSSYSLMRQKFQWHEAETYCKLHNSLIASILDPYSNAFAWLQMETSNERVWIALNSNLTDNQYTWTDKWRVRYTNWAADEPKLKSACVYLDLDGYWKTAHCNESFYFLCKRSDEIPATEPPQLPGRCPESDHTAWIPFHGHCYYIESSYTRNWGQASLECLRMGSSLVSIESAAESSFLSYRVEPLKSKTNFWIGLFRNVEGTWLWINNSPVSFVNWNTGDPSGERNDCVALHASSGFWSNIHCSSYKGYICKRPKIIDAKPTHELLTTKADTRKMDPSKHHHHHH
In words: PE-ELISA, periplasmic extract on coated human MMR, anti-HA detection. For orientation: An ELISA detects its analyte on a solid surface through an enzyme-linked reagent.

In test [2] the target is T2, Mouse macrophage mannose receptor (MMR) expressed on tumor-associated macrophages of 3LL-R tumors (mouse, UniProt Q61830 20-1456).
T2 construct: Endogenous receptor on ex vivo isolated CD11b+ Ly6G- TAMs (flow cytometry) and in mouse organs (biodistribution); also called mouse MMR; mMMR
T2 sequence: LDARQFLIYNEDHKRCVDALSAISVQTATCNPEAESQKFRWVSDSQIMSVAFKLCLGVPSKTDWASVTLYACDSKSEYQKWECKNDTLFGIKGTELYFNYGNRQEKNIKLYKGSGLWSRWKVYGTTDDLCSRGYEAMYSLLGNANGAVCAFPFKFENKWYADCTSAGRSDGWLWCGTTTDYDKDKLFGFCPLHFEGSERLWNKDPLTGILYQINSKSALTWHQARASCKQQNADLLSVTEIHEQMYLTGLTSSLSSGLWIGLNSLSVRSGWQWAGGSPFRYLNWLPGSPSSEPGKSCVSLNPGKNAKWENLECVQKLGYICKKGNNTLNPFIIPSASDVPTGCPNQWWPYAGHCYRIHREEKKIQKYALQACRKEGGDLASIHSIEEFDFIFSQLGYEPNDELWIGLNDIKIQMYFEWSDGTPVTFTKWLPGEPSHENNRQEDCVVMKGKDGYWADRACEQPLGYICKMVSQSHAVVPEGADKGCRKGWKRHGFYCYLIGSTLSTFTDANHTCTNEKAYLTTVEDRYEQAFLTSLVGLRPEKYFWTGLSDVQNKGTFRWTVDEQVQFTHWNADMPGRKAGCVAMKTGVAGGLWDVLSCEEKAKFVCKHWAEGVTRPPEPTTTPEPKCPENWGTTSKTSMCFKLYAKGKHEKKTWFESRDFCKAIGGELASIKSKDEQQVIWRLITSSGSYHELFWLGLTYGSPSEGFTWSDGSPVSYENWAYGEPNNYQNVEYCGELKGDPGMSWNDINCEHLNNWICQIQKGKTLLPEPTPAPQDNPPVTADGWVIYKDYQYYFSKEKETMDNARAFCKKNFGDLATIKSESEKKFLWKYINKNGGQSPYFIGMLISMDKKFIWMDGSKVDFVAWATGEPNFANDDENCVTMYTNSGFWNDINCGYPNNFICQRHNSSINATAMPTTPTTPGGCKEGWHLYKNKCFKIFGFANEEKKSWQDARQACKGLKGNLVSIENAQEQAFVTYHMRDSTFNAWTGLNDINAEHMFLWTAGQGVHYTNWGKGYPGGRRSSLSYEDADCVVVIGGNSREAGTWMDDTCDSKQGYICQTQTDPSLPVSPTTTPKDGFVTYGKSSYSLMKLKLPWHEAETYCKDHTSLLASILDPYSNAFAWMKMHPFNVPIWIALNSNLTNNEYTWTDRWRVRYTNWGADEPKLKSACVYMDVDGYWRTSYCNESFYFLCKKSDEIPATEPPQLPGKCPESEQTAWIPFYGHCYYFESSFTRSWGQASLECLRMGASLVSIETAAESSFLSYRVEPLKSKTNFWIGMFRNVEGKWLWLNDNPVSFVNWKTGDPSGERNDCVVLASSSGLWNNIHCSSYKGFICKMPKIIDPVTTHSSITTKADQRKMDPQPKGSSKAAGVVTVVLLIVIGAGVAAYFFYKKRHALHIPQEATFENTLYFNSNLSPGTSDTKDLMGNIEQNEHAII
Briefly: flow cytometry on CD11b+ Ly6G- TAMs of 3LL-R tumors gated on MHCII, HA-tagged Nb detected with Alexa Fluor 488 anti-HA. On the procedure:
FIG. 6: MMR-specific Nbs bind to mouse MMR expressed on ex vivo isolated macrophages. 3LL-R tumors were induced by injecting 3×10⁶ cancer cells subcutaneously in C57Bl/6 mice. After 15 days of tumor growth, the tumors were isolated and single cell suspensions were prepared to be analyzed by flow cytometry. The CD11b+Ly6G tumor-associated macrophages (TAM) were further gated on MHCII expression. The histograms depict MMR expression as defined by Nb binding on MHCII^low and MHCII^high TAMs. Shaded histograms depict binding of the negative control Nb BCII10.
For examining specific binding of the anti-MMR sdAbs to mouse MMR, 3LL-R tumors were induced by injecting 3 E6 cancer cells subcutaneously in C57Bl/6 mice. After 15 days of tumor growth, the tumors were isolated, chopped and incubated for 25 minutes (37° C.) with 10 U/ml Collagenase type I, 400 U/ml Collagenase type IV, and 30 U/ml DNAseI (Worthington). Density gradients (Axis-Shield) were used to remove tissue debris and dead cells. sdAbs were added at 10 μg/ml to 1 E6 cells per tube. […] Binding profiles of anti-MMR sdAbs were recorded.
For orientation: A flow cytometer gives signals particle by particle.

B1: NbhMMRm4.83 (VHH)
VHH: QVQLQESGGGLVQPGGSLRLSCAASGPGFKLDYYAIAWFRQAPGKEREGVSCIGGSGSGLTTYVENSVKDRFTISRDNAQNTVYLHMNSLKPEDTGIYYCAADTYYYCSKRVWRNDYGSWGQGTQVTVSS
notes: Only tested as periplasmic extract in PE-ELISA; clone carries C-terminal HA and 6xHis tag
Turning to B1, in test [1], the binding result was “binds”.

B2: anti-mouse MMR sdAb clone 1 (VHH)
VHH: QVQLQESGGGLVQPGGSLRLSCAASGNIFSINAIGWYRQAPGKQRELVATITLSGSTNYADSVKGRFSISRDNAKNTVYLQMNSLKPEDTAVYYCNANTYSDSDVYGYWGQGTQVTVSS
notes: also called anti-mMMR Nb clone 1; anti-mouse MMR clone 1
For the molecule B2, the binding result in test [2] is “binds”.
